Data from patent US12178848B2, “Methods and compositions for the treatment of exocrine pancreatic insufficiency” (Board of Regents, The University of Texas System, priority 2016, dated 2024).

What was measured:
AR42J cells = test: Calcium imaging with fluo4-AM; type: cell-based; conditions: for block of CCK-mediated calcium release: inhibitor 30 min prior and during imaging: 1 μM PD173074, 10 μM L-364,718, 10 μM U73122, 100 μM 2-APB; for block of calcium release elicited by FGF21: 1 μg/ml FGF21, inhibitor 30 min prior and during imaging: 1 μM PD173074, 10 μM L-364,718, 10 μM U73122, 100 μM 2-APB; for intracellular calcium release (ΔF/F0): 1 μg/ml FGF21 or 100 pM CCK
Method: AR42J cells were pre-loaded with 1 μM of the calcium indicator fluo4-AM (Life Technologies) for 30 minutes at 37° C. Where indicated, 1 μM PD173074 (Sigma), 10 μM L-364,718 (Tocris Bioscience), 10 μM U73122 (Tocris Bioscience) or 100 μM 2-APB (Tocris Bioscience) were added during fluo4-AM preloading and to the imaging medium (DMEM without phenol red). Cells were imaged on a BD Pathway 855 bioimager with a 10× objective. Vehicle, FGF21 (1 μg/ml) and CCK (100 pM) were delivered 10 seconds after baseline fluorescence acquisition by an automated fluid delivery mechanism and imaged for a total time of 2 minutes. Calcium release was calculated using Image J as ΔF/F0, where ΔF is the raw fluorescent signal (F) from cells minus their background fluorescence (calculated from a region where no cells and fluorescent signal was expected), and F0 was the average of the first 6 frames before the compound was added. Sample size (n) corresponds to the number of cell clusters measured with each cell cluster containing 5-20 cells.

ad-lib fed WT mice = test: FGF21 protein levels in pancreatic juice and plasma after CCK treatment; type: in vivo, mouse; conditions: 15 min CCK treatment vs basal
Excerpt: (§1) Fgf21-knockout (KO) mice (Potthoff, et al., Proc Natl Acad Sci USA 106, 10853-10858, 2009), Fgf21-transgenic (Tg) mice (Inagaki, et al., Cell Metab 5, 415-425, 2007), KLB-T and WT littermates were maintained on a C57Bl/6J background. β-Klotho-KO and heterozygous littermates were kept on a mixed C57BL/6J; 129/Sv background (Ding, et al., Cell Metab 16, 387-393, 2012). All mice were housed in a pathogen-free facility and fed a standard chow diet (Harlan Teklad 2916). For fasting refeeding experiments, mice were fasted overnight and then refed for 2 hours with standard chow diet. Acute pancreatitis was induced by administration of seven hourly intraperitoneal injections of 50 μg/kg cerulein (Sigma), whereas mice in the control group were injected with saline. FGF21 in plasma was measured using a mouse FGF21 ELISA kit (Biovendor). Male mice were used for all experiments.
(§2) Mice were injected with vehicle (10 mM Na2HPO4, 2% [w/v] glycerol, pH 7.6) or 1 mg/kg human recombinant FGF21 (Novo Nordisk) subcutaneously twice per day for two consecutive days. Mice were fasted for 6 hours, and pancreatic juice was collected for 15 minutes. The final injection of vehicle or FGF21 was given 1 hour prior to pancreatic juice collection.

PLCβ3 = test: Western blot of pancreatic phospho-PLCβ; type: in vivo, mouse; conditions: WT mice, 5 μg/kg CCK (i.p.) for 15 min
Method: (§3) Pancreas was homogenized using Fastprep-24 lysing matrix bead tubes (MP Biomedicals) in 1×RIPA buffer (Cell Signaling Technology) supplemented with a cocktail of protease and phosphatase inhibitors (Roche). Protein lysate concentrations were measured using the DC Protein Assay (Biorad). Equal protein amounts were loaded and electrophoresed in a […] SDS-polyacrylamide gel (Biorad) and transferred to nitrocellulose membranes (Biorad). Membranes were blocked with 5% BSA in TBST for 1 hour. Probing of membranes with antibodies against FGF21, amylase and lipase (Santa Cruz); β-actin (Abcam); p-EIF2α, p-ERK1/2, and p-eIF4E-BP1 (Cell Signaling Technology) was performed overnight at 4° C. Membranes were then incubated with HRP-conjugated secondary antibodies (Cell Signaling Technology) against the primary antibody's host species for 1 hour. Membranes were developed using the Super Signal West Chemiluminescence Kit (Thermo) and signal was detected with an ImageQuant LAS4000 luminescent imager (General Electric). Quantification was done using Image J.
(§4) Activation of the CCK-A receptor leads to the phosphorylation of the b isoform of PLC, calcium release, and subsequent secretion. In contrast, FGF receptors activate the γ isoform. To explore whether FGF21 and CCK have different activation profiles for the PLC isoforms, we treated WT mice with vehicle, FGF21, or CCK for 15 min. […]

ERK1/2 = test: Western blot of pancreatic phospho-ERK1/2; type: in vivo, mouse; conditions: for ERK1/2 phosphorylation in pancreas (FIG. 4F): WT mice, 1 mg/kg FGF21 or 5 μg/kg CCK (i.p.) for 15 min; for ERK1/2 phosphorylation in pancreas (FIG. 3B): mice, 1 mg/kg FGF21 or 5 mg/kg CCK for 15 min
Method: as §3

eIF4E-BP1 = test: Western blot of pancreatic phospho-eIF4E-BP1; type: in vivo, mouse; conditions: mice, 1 mg/kg FGF21 or CCK for 15 min
Method: as §3

[1] = test system: pancreatic protein synthesis; test: Pancreatic protein synthesis, 3H-phenylalanine flooding dose method; type: in vivo, mouse; conditions: mice, 1 mg/kg FGF21 or 5 mg/kg CCK for 2 hr
Method: Pancreatic protein synthesis was measured by the flooding dose method using ^3H-phenylalanine (Sans, et al., American journal of physiology 287, G667-675, 2004).

[2] = test system: mouse primary acinar cells; test: Cell secretion assay, amylase secretion; type: cell-based; conditions: 1 μg/mL FGF21 for 30 min
Method: Primary acinar cells were prepared by modification of a published protocol (Williams, et al., The American journal of physiology 235, 517-524, 1978). Briefly, mice were sacrificed by decapitation followed by dissection and washing of the pancreas in 1×PBS. Pancreas digestion medium (0.75 mg/ml collagenase type XI-S [Sigma], 0.1 mg/ml soybean trypsin inhibitor [Sigma], 1% BSA in DMEM) was injected into the pancreatic parenchyma with a 30 g syringe. Pancreas was then incubated in digestion medium for 20-40 minutes with constant mixing using serological pipets of decreasing diameters. Cells were filtered through a 100 μm strainer and washed 3 times with incubation medium (0.1 mg/ml soybean trypsin inhibitor, 1% BSA in DMEM) via centrifugation at 50×g for 3 minutes per wash. Cells were plated and allowed to recover for 2 hours in incubation medium at 37° C.
Primary acinar and AR42J cells were treated with vehicle, FGF21 (1 μg/ml for both primary acinar cells and AR42J) or CCK (10 pM for primary acinar cells and 100 pM for AR42J cells [Phoenix Pharmaceuticals]) for 30 minutes at 37° C. Amylase levels in both the cell medium and cells were analyzed using an Amylase Assay Kit (Abcam).

[3] = test system: Fgf21-transgenic (Tg) mice; test: Cerulein-induced pancreatitis (CIP), ER stress markers; type: in vivo, mouse; conditions: chronic FGF21 via liver-specific transgene, supraphysiologic circulating levels; cerulein 50 μg/kg, seven hourly i.p. injections
Excerpt: as §1, with “experiments. […]” for “experiments.”
Pancreas was homogenized using Fastprep-24 lysing matrix bead tubes (MP Biomedicals) in 1×RIPA buffer (Cell Signaling Technology) supplemented with a cocktail of protease and phosphatase inhibitors (Roche). Protein lysate concentrations were measured using the DC Protein Assay (Biorad). […] Membranes were developed using the Super Signal West Chemiluminescence Kit (Thermo) and signal was detected with an ImageQuant LAS4000 luminescent imager (General Electric). Quantification was done using Image J.

PLCγ1 = test: Western blot of pancreatic phospho-PLCγ; type: in vivo, mouse; conditions: WT mice, 1 mg/kg FGF21 for 15 min
Method: as §3, §4

Fgf21-KO mice [4] = test: Western blot of pancreatic amylase and lipase levels; type: in vivo, mouse; conditions: 1 mg/kg recombinant FGF21 twice per day for two consecutive days
Method: as §2
as §3, with “Membranes were then incubated with HRP-conjugated secondary antibodies (Cell Signaling Technology) against the primary antibody's host species for 1 hour.” left out

Fgf21-KO mice [5] = test: H&E staining of pancreas, eosinophilic area fraction; type: in vivo, mouse; conditions: 1 mg/kg recombinant FGF21 twice per day for two consecutive days
Method: as §2
Mouse pancreas was fixed in 10% neutral buffered formalin overnight and then paraffin embedded, sectioned and hematoxylin and eosin stained. For fresh frozen histology, the pancreas was quickly dissected, snap frozen in cooled isopentane and sectioned at 14-16 μm. The sections were then fixed in 10% neutral buffered formalin for 15 min at 4° C., washed 3 times in 1×PBS and mounted with Vectashield mounting medium with DAPI (Vector Laboratories). Images were acquired with a Zeiss Axioscan Z1 slide scanner at a 20× magnification. Quantification of the eosinophilic area was performed using Image J.

[6] = test system: Klb^fl/fl and Klb^Cela1−/− mice; test: Pancreatic juice collection: flow rate and amylase levels; type: in vivo, mouse; conditions: 1 mg/kg FGF21 for 2 consecutive days
Method: as §2
To explore whether FGF21 also acts directly on pancreatic acinar cells in vivo, we generated an inducible acinar cell-specific β-Klotho (Klb) knockdown mouse model in which Cre recombinase expression was under the control of a modified estrogen receptor and the elastase promoter. Efficient knockdown of Klb expression following tamoxifen administration was confirmed in floxed Klb mice carrying the Cre allele (Klb^Cela1−/−). There was no change in plasma FGF21 concentrations in Klb^Cela1−/− mice under fasted conditions. Similar to the Fgf21 KO mice, the Klb^Cela1−/− mice had increased zymogen granule density and pancreatic digestive enzyme concentrations. To test whether FGF21 acts directly on pancreatic acinar cells to stimulate secretion, Klb^fl/fl and Klb^Cela1−/− mice were treated with either vehicle or FGF21 and pancreatic juice collected for 15 min. […] Thus, the basis for the remaining effect of FGF21 on pancreatic juice flow rate requires further investigation.

secretin = test: Blood concentration of secretin; type: in vivo, mouse; conditions: mice treated with FGF21
[7] = test system: Female Swiss Webster mice; test: ERCP-induced pancreatitis model, histological grading of pancreas; type: in vivo, mouse; conditions: 1 mg/kg FGF21, 4 subcutaneous injections
Method: To evaluate if FGF21 confers a beneficial effect against ERCP-induced pancreatitis, a preclinical study was performed in an established rodent model of ERCP that develops pancreatitis 24 hours after ERCP. Female Swiss Webster mice were treated with either 4 subcutaneous injections of vehicle or 1 mg/kg FGF21 in the following way: 1 injection the day prior to ERCP, 2 injections the day of the ERCP procedure, and 1 injection the day following ERCP. Mice were subjected to the ERCP procedure, which consisted of a high-pressure infusion of a radiocontrast agent through the pancreatic duct.

[8] = Klb^Cela1−/− mice, juice collected for 15 min

Row | Molecule | block of CCK-mediated calcium release (AR42J cells; 100 pM CCK) | block of calcium release elicited by FGF21 (AR42J cells) | intracellular calcium release (ΔF/F0) (AR42J cells) | ERK1/2 phosphorylation in pancreas (FIG. 4F) (ERK1/2) | ERK1/2 phosphorylation in pancreas (FIG. 3B) (ERK1/2) | phosphorylation of eIF4E-BP1 in pancreas (eIF4E-BP1) | 3H-phenylalanine incorporation into pancreatic protein (pancreatic protein synthesis) [1] | also measured
1 | NCCOB(c1ccccc1)c1ccccc1 [2-APB] | blocked | blocked |  |  |  |  |  | 
2 | CN1C(=O)[C@@H](NC(=O)c2cc3ccccc3[nH]2)N=C(c2ccccc2)c2ccccc21 [L-364,718] | blocked | not |  |  |  |  |  | 
3 | CCN(CC)CCCCNc1ncc2cc(-c3cc(OC)cc(OC)c3)c(NC(=O)NC(C)(C)C)nc2n1 [PD173074] | not | blocked |  |  |  |  |  | 
4 | COc1ccc2c(c1)CC[C@@H]1[C@@H]2CC[C@]2(C)[C@@H](NCCCCCCN3C(=O)C=CC3=O)CC[C@@H]12 [U73122] | blocked | blocked |  |  |  |  |  | 
5 | cholecystokinin [CCK] |  |  | triggered intracellular calcium release | induced | induced | increased | significantly increased | time to peak calcium levels after treatment (AR42J cells; 100 pM CCK): ≤ 30 s; change of FGF21 in the blood (ad-lib fed WT mice): without any change; increase in the concentration of FGF21 in the pancreatic juice (ad-lib fed WT mice): 3 fold; phosphorylation of PLCβ in pancreas (PLCβ3): induced
6 | fibroblast growth factor 21 (protein, UniProt Q9NSA1 29-209, looked up, human recombinant FGF21 from Novo Nordisk, the native form of the human FGF21) Fibroblast growth factor 21: HPIPDSSPLLQFGGQVRQRYLYTDDAQQTEAHLEIREDGTVGGAADQSPESLLQLKALKPGVIQILGVKTSRFLCQRPDGALYGSLHFDPEACSFRELLLEDGYNVYQSEAHGLPLHLPGNKSPHRDPAPRGPARFLPLPGLPPALPEPPGILAPQPPDVGSSDPLSMVGPSQGRSPSYAS |  |  | triggered intracellular calcium release | induced | induced | no effect | no significant effect | time to peak calcium levels after treatment (AR42J cells; 1 μg/ml FGF21): 60 to 120 s; amylase (digestive enzyme) secretion from acinar cells [2]: Induce Pancreatic Digestive Enzyme Secretion; ER stress parameters (p-eIF2α, Atf4, Chop, Bip mRNA) in response to CIP [3]: suppressed; phosphorylation of PLCγ in pancreas (PLCγ1): induced; pancreatic digestive enzyme levels (amylase, lipase), immunoblot (Fgf21-KO mice [4]): reduction; pancreatic eosinophilic area fraction (Fgf21-KO mice [5]): decreased the pancreatic eosinophilic area fraction in Fgf21-KO mice to wild type (WT) levels; effect on digestive enzyme secretion (amylase in pancreatic juice) in Klb^Cela1−/− mice [6, 8]: absent; effect on pancreatic juice flow rate in Klb^Cela1−/− mice [6, 8]: significantly reduced but not eliminated; digestive enzyme secretion into pancreatic juice ([6]; control mice): stimulate; pancreatic juice flow ([6]; control mice): stimulate; blood concentrations of secretin (secretin): did not increase; edema after ERCP, histological grading [7]: decreased; inflammation after ERCP, histological grading [7]: decreased
